# The nanobody polyreactivity screen of Harvey et al. (2022)
# Experiment: yeast display, Sf9 membrane polyspecificity reagent, FACS + sequencing; frameworks hold sequencing errors
# In short: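 Galactose-induced (36–48 hours) yeast carrying a synthetic nanobody display library were exposed to 10% biotinylated, detergent-solubilized Sf9 membrane reagent at 4 °C for 1 hour. FACS followed streptavidin microbead enrichment, using low and high (top ~1%) gates for expression (anti-HA) and reagent binding (streptavidin). Colony PCR, MiSeq 2 × 250 sequencing and CDR-length filtering followed. Labels for polyreactivity reflect the gate of origin.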
row,Sequence,polyreactivity (PSR sort gate)
1,QVQLVESGGGLVQAGGSLRLSCAASGRIFSKKAMGWYRQAPGKERELVARIRWTGGITYYADSVKGRFTISRDNAKNTVYLQMNSLKPEDTAVYYCAADYLWGTWTTYFRPLLYDYWGQGTQVTVSS,low polyreactivity
2,QVQLVESGGGLVQAGGSLRLSCAASGRIFSKNAMGCYRQQPGKERELVAAISRSGGGTYYADSVKGRFTISRDTAKNTVYLQMNSLKPEDTAVYYCATRYGSWGQGTQVTVSS,high polyreactivity
3,QVQLVESGGGLVQAGGSLRLSCAASGRIFSKNVRGWYRQAPGKERELVADISNTGRTYYADSVKGRFKISRDNAKNTVYLQMNSLKPEDTAVYYCAADIAYRYFAVEFSSYTGDYWGQGTQVTVSS,low polyreactivity
4,QVQLVESGGGLVQAGGSLRLSCAASGRIFSKYAMGWYRQAPGKERELVASIRWRGDRTYYADSVKGRFTISRDNAKNTVDLQMNSLIPEDTAVYYCAADEPGYGVGYWTYPVVPYDYWGQGTQVTVSS,low polyreactivity
5,QVQLVESGGGLVQAGGSLRLSCAASGRIFSLNAMGWYRQAPGNERELVAGNRKRGGSTYYADSVKGRFTISRDNAKNTLYLQMNSLKPEDTAVYYCAAQPALTYRFYYWGQGTQVTVSS,high polyreactivity
6,QVQLVESGGGLVQAGGSLRLSCAASGRIFSLYAMGWYRQAPGKERELVAAISRGGSTYYADSVKGRFTISRDNAKNTVYLQMNSLKPEDTAVYYCAAAPDYRAEYDYWGQGTQVTVSS,low polyreactivity
7,QVQLVESGGGLVQAGGSLRLSCAASGRIFSNNAIGWYRQAPGKARELVAAHSWNGGRTYYADSVKGRFTISRDNGKNTVYLQMNSLQPEDPAVYYCTKHDAQTRSFASTWYVYWGQGTQVTVSS,high polyreactivity
8,QVQLVESGGGLVQAGGSLRLSCAASGRIFSNNAMGWYRQAPGKERELVAAITNSGGSTYYADSVKGRFTISRDNAKNTVYLQMNSLKPEDTAVYYCAADHLSVPYDVYWTYSYWGQGTQVTVSS,low polyreactivity
9,QVQLVESGGGLVQAGGSLRLSCAASGRIFSNNAMGWYRQAPGKERELVASIDSGDSTTYADSVKGRFTISRDNAKNTVYLQMNSLKPEDTAVYYCNAGPAEADYDYWGQGTQVTVSS,high polyreactivity
10,QVQLVESGGGLVQAGGSLRLSCAASGRIFSNYAMGWYRQAPGKERELVAAITRSGGSTYYADSVKGRFTISRDNAKNTVYLQMNSLKPEDTAVYYCNTAYRRRYTYDYWGQGTQVTVSS,high polyreactivity
11,QVQLVESGGGLVQAGGSLRLSCAASGRIFSPNAMGWYRQAPGKERELVAVSSWRGVSTYFADSVKGRFTISRDNAKNTVYLQMNSLKPEDTAVYYCAVDNKSVYYWRQYYYWGQGTQVTVSS,high polyreactivity
12,QVQLVESGGGLVQAGGSLRLSCAASGRIFSPYAMGWYRQAPGKERELVAAISYDDGITYYADSVKGRFTISRDNAKNTVYLQMNCLKPEDTAVYYCAADSVTRPAGDYWGQGTQVTVSS,low polyreactivity
13,QVQLVESGGGLVQAGGSLRLSCAASGRIFSPYAMGWYRQAPGKERELVAAITWSGTSTSYADSVKGRFTISRDNAKNTVYLQMNRLKPEDTAVYYCNAVYRSWDRYTFYWYVSNDYWGQGTQVTVSS,low polyreactivity
14,QVQLVESGGGLVQAGGSLRLSCAASGRIFSPYAMGWYRQAPGKERELVASIRGSGGSTYYADSVKGPFTISRDNAKNTVYLQMNRLKPEDTAVYYCNARNNYRFLSFGYWGQGTQVTVSS,high polyreactivity
15,QVQLVESGGGLVQAGGSLRLSCAASGRIFSQNAMGWYRQAPGKERELVAAISGGSTNYADSVKGRFTISRDNAKNTVYLQMNSLKPEDTAVYYCAVRWYFYHRSVEYDYWGQGTQVTVSS,low polyreactivity
16,QVQLVESGGGLVQAGGSLRLSCAASGRIFSQYAMGWYRQAPGKARELVAAITKSGGSTYYADSVKGRFTISRDKAKNTVYLQMNSRKPEETAVYYCAKLRSSRDYDYWGQGTQVTVSS,high polyreactivity
17,QVQLVESGGGLVQAGGSLRLSCAASGRIFSQYAMGWYRQAPGKERELVAAISYDDGITYYADSVKGRFTISRDNAKNTVYLQMNSLKPEDTAVYYCNADGSRRYNYWGQGTQVTVSS,low polyreactivity
18,QVQLVESGGGLVQAGGSLRLSCAASGRIFSRNALGWYRQAPGKERELVAAISWRGGRTYYAVSVKGRFAISRDNAKNTVYLQMNSLKPEDTAVYYCNAVSFGRARHGGPVYGYDYWGQGTQVTVSS,high polyreactivity
19,QVQLVESGGGLVQAGGSLRLSCAASGRIFSRNAMGWYRQAPGKERELVAAITWRGGSTYYADSVKGRFTISRDNAKNTVYLQMNSLKPEDTAVYYCNRDYRQYGYAYSGRYYWGQGTQVTVSS,high polyreactivity
20,QVQLVESGGGLVQAGGSLRLSCAASGRIFSRNTMGWYRQAPGKERELVAAISWRGGSTYYADSVKGRFTISRDNAKNTVYLQMNSLKPEDTAVFYCAAVVRSPAYDYWGQGTQVSVSS,high polyreactivity
21,QVQLVESGGGLVQAGGSLRLSCAASGRIFSRYAMGGYRQAPGKERELVAAIRYSGGRTYYADSVKGRFTISRDNAKNTVYLQMNSLIPEDTEVYYCAADGQWYYAPFRGGDYENDYWGQGTQVTVSS,low polyreactivity
22,QVQLVESGGGLVQAGGSLRLSCAASGRIFSRYAMGWYRQAPGKERELVAAITGRGGSTYYADSVKGRFTISRDNAKNTVYLQMNSLKPVDTAVYYCAVANRVTPLFLRYDYWGQGTQVTVSS,high polyreactivity

row,Sequence,polyreactivity (PSR sort gate)
1,QVQLVESGGGLVQAGGSLRLSCAASGRIFSRYAMGWYRQAPGKERELVAAITWSVGSTYYADSVKGRFTISRDNAKNTVYLQMNSLKPEDTAVSYCAKLVRYYKPGYDYGGQGTQVTVSS,low polyreactivity
2,QVQLVESGGGLVQAGGSLRLSCAASGRIFSRYAMGWYRQAPGKERELVAAITYSGGSTYYADSVKGRFTISRDNAKNTVYLQMNSLKPEDTAVYYCNAATYGGRYYYWGQGTQVTVSS,high polyreactivity
3,QVQLVESGGGLVQAGGSLRLSCAASGRIFSRYVMGWYRQAPGKERELVAAITSSGGRTYYADSVKGRFTISRDNAKNTVYLQMNSLNPEDTAVYYCNNAPWWRTSSDYEYWGQGTQVTVSS,high polyreactivity
4,QVQLVESGGGLVQAGGSLRLSCAASGRIFSSNAMGWYRQAPGKEWELVAAITRGGSTNYADSVKGRFTISRDNAKNTDYLQMNSLKPEDTAVYYCNVDYYVFNHQGHLNYDYWGQGTQVTVSS,high polyreactivity
5,QVQLVESGGGLVQAGGSLRLSCAASGRIFSSNGMGWYRQAPGKERELVAAIRTDGGSTYYADSVKGRFTISRDNAKNTVYLQMNSLKPEDTAVYYCNAQGAYTDVFDVYQRQPDDYWGQGTQVTVSS,low polyreactivity
6,QVQLVESGGGLVQAGGSLRLSCAASGRIFSSNVMGWYRQAPGKERELVAAITSGGSTYYADSVKGRFTISRDNAKNTVYLQMNSLKPEDTAVYYCAASYWVLRYRYDYWGQGTQVTVSS,high polyreactivity
7,QVQLVESGGGLVQAGGSLRLSCAASGRIFSSYAMGWSRPAPGKERELVAAISSSGGNTYYADSVKGRFTISRDNAKNTVYLQMNSLKPEDTAVYYCNTRWVHRDWYDYWGQGTQVTVSS,high polyreactivity
8,QVQLVESGGGLVQAGGSLRLSCAASGRIFSSYAMGWYRKAPGKERELVAAISGSGGRTYYADSVKGRFTISRDNAKNTVYLQMNSLKPEDTAVYYCNARRRSPYSTGVAYDYWGQVTQVTVSS,high polyreactivity
9,QVQLVESGGGLVQAGGSLRLSCAASGRIFSSYAMGWYRQAPGKERELVAAISRSGARTYYADSVKGRFTISRDNAKNTVYLQMNSLKPEDTAVYYCAAVTVAGYDYWGQGTQVTVSS,high polyreactivity
10,QVQLVESGGGLVQAGGSLRLSCAASGRIFSSYDMGWYRQAPGKERELVAAISYSGGNTYYADSVKGRFTISRDTAKNTVYLQMNSLKPEDTAVYYCAARLPGYRYYYWGQGTQVTVSS,high polyreactivity
11,QVQLVESGGGLVQAGGSLRLSCAASGRIFSSYVMGWYRQAPGKERELVAAIRWSGGSTYYADSVKGRFTISRDNAKNTVYLQMNSLKPEDTAVYYCAAVVYRYYATGYGYWGQGTQVTVSS,high polyreactivity
12,QVQLVESGGGLVQAGGSLRLSCAASGRIFSTYAMGWYRQAPGKERELVAAITNSAGSTYYADSVKGLFTISRDNAKNTVYLQMNSLKPEDTAVYYCATGWSRISYGFDYWGQGTQVTVSS,low polyreactivity
13,QVQLVESGGGLVQAGGSLRLSCAASGRIFSTYVMGWYRQAPGKERELVAAITWSGGSTYYADSVKGRFTISRDNAKNTVYLQMNSLKPEDTAVYYCAADEIYRYGYWGQGTLVTVSS,high polyreactivity
14,QVQLVESGGGLVQAGGSLRLSCAASGRIFSVYAMGWYRQAPGKERELVAAITRVGSTNYADSVKGRFTISRDNAKNTVFLLMNSLKQEDTAVYYCARTYSTRGYYYWGQGTQVTVSS,high polyreactivity
15,QVQLVESGGGLVQAGGSLRLSCAASGRIFSVYAMGWYRQAPGKERELVAAITRVGSTNYADSVKGRFTISRDNAKNTVYLQMNSLKPEDTAVYYCAAVARTVPSYSYNYWGQGTQVTVSS,high polyreactivity
16,QVQLVESGGGLVQAGGSLRLSCAASGRIFSVYAMGWYRQAPGKERELVASIRSRGSSTYYADSVKGRFTISRDNAKNTVYLQMNSLKPEDTAVYYCAVDVLTVGQSYDHWGQGTQVTVSS,high polyreactivity
17,QVQLVESGGGLVQAGGSLRLSCAASGRIFSVYDMGWYRQAPGKERELVAAIDTSDGSTNYADSVKGRFTISRDNAKNTVYLQMNSLKPEDTAVYYCNATDSYVPFDYWGQGTQVTVSS,low polyreactivity
18,QVQLVESGGGLVQAGGSLRLSCAASGRIFSWYAMGWYRQAPGKERELVAAISWRGGSTYYADSVKGRFTISRDNAKNTVYLQMNSLKPEDTAVYYCIGGPGGYDYWGHGTQVTVSS,low polyreactivity
19,QVQLVESGGGLVQAGGSLRLSCAASGRIFSYAMGWYRQAPGKERELVAAINWSGDSTYYADSVKGRFTISRDNAKNTVYLQMNSLKPEDTAVYYCNAVSAYWGAYGYWGQGTQVTVSS,high polyreactivity
20,QVQLVESGGGLVQAGGSLRLSCAASGRIFSYNAMGSDRQAPGKERELVADISSGGSTYYADSVKGRFTISRDNAKNSVYLQMNSLKPEDSAVYYCNADYYAFPWTNEYWGQGTQVTVSS,high polyreactivity
21,QVQLVESGGGLVQAGGSLRLSCAASGRIFSYNAMGWYRQAPGKERELVAAITFSGGGTYYADSVKGRFTISRDNAKNTVYLQMNSLKPEDTAVYYCAADVPPKYRHRYNLYDYWGQGTQVTVSS,low polyreactivity
